Assay results published in patent US20070055049A1.

Columns and labels:
[1] = target: HLA-A*0201 (human); experiment: competitive inhibition, purified HLA-A2.1
[2] = target: HLA-A*0201 (human); experiment: competitive inhibition, purified HLA-A2.1, reference peptide
[3] = target: HLA-A*0201 (human); experiment: competitive inhibition, purified HLA-A2.1, standard reference peptide
[4] = target: HLA-A*0201 (human); experiment: competitive inhibition of the radiolabeled peptide, purified HLA, average
[5] = target: HLA-A*0203 (human); experiment: as above
[6] = target: HLA-A*0201 (human); conditions: remark: other sources report otherwise
[7] = target: HLA-A3.2 (product of the A*0301 gene) (human)
[8] = target: HLA-A*0201 (human); experiment: inhibition curve with unlabeled peptide, purified A2.1; conditions: remark: other sources report otherwise

**Q.** Which IC50 [1] does the source give for YMDDVVLGA (modifications not checked) [HBV pol 538 peptide] here?
**A.** 200 nM

**Q.** For FLPSDYFPSV (modifications not checked) [HBV core 18-27 F6>Y analog peptide], which IC50 [2] is on record?
**A.** 5 nM

**Q.** And the IC50 [3]?
**A.** 5 nM

**Q.** What about the IC50 [4] of the same binder?
**A.** 5 nM

**Q.** And the IC50 [5]?
**A.** 10 nM

**Q.** FLPSDFFPSV (modifications not checked) [HBc 18-27 peptide, P03146 18-27] was tested. Which percent of radiolabeled peptide bound [6] did it give?
**A.** 95%

**Q.** What about the IC50 [7] of the same binder?
**A.** > 30000 nM

**Q.** What about the IC50 [8] of the same binder?
**A.** 25 nM
